For data set [1], the target named is T1, F10B5.3 (F10B5.3) (Caenorhabditis elegans) (UniProt Q09534).
T1 sequence: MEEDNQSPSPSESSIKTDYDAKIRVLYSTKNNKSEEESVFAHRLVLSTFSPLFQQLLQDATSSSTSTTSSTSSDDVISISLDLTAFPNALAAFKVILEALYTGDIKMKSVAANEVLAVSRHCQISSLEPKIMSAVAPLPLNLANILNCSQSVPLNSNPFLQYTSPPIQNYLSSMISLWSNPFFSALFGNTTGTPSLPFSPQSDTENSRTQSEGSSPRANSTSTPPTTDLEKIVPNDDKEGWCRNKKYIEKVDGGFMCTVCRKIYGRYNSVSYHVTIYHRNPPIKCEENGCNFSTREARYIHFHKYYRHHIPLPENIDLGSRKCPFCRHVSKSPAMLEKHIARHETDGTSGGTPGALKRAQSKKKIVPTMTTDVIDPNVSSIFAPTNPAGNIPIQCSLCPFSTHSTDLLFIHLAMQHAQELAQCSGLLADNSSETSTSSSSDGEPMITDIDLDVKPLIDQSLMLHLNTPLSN

In data set [2] the target is T2, che-1 (C55B7.12) (Caenorhabditis elegans) (UniProt Q966L8).
T2 sequence: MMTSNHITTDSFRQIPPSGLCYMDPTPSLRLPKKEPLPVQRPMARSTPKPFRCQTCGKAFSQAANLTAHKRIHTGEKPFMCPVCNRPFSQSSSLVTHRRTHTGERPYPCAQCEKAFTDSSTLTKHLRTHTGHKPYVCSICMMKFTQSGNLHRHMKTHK

Data set [3] concerns the target odd-2 (C34H3.2) (Caenorhabditis elegans) (UniProt Q9N5X6).

Chain of odd-2 (C34H3.2) (Caenorhabditis elegans) (Q9N5X6 74-252): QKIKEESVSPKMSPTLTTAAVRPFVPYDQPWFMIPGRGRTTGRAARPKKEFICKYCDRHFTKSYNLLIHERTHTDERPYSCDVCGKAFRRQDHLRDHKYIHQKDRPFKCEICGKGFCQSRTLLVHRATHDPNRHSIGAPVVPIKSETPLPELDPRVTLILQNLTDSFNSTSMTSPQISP

“TCCACGAA (double strand) [8-mer TCCACGAA]” had a binding signal (PBM E-score (-0.5 to 0.5)) in data set [1] of 0.476.

In data set [1], “ATTTCCAG (double strand) [8-mer ATTTCCAG]” yielded a binding signal (PBM E-score (-0.5 to 0.5)) of 0.473.

In data set [2], “GGAAGCCC (double strand) [8-mer GGAAGCCC]” gave a binding signal (PBM E-score (-0.5 to 0.5)) of 0.495.

For the sequence “AGGAAGCC (double strand) [8-mer AGGAAGCC]”, the binding signal (PBM E-score (-0.5 to 0.5)) in data set [2] is 0.49.

For the sequence “ATGGCTTC (double strand) [8-mer ATGGCTTC]”, the binding signal (PBM E-score (-0.5 to 0.5)) in data set [2] came out at 0.495.

As to “AAGGCTTC (double strand) [8-mer AAGGCTTC]”, the binding signal (PBM E-score (-0.5 to 0.5)) in data set [2] was determined as 0.494.

As to “CGGTAGCC (double strand) [8-mer CGGTAGCC]”, in data set [3], the binding signal (PBM E-score (-0.5 to 0.5)) was 0.485.

In data set [1], “CCTGGAAA (double strand) [8-mer CCTGGAAA]” gave a binding signal (PBM E-score (-0.5 to 0.5)) of 0.48.

Sequence “TCCTGGAA (double strand) [8-mer TCCTGGAA]” yielded a binding signal (PBM E-score (-0.5 to 0.5)) in data set [1] of 0.491.

Regarding “GGAAGCCA (double strand) [8-mer GGAAGCCA]”, the binding signal (PBM E-score (-0.5 to 0.5)) in data set [2] is 0.494.

Consider “AGAAGCCA (double strand) [8-mer AGAAGCCA]”, for which, in data set [2], the binding signal (PBM E-score (-0.5 to 0.5)) was found to be 0.489.

On to “GTTCCAGA (double strand) [8-mer GTTCCAGA]”, for which the binding signal (PBM E-score (-0.5 to 0.5)) in data set [1] worked out at 0.473.

In data set [1], “TCCTCGAA (double strand) [8-mer TCCTCGAA]” gave a binding signal (PBM E-score (-0.5 to 0.5)) of 0.481.

Take “CAGTAGCA (double strand) [8-mer CAGTAGCA]”: the binding signal (PBM E-score (-0.5 to 0.5)) in data set [3] was 0.495.

In data set [3], “AGCTACTG (double strand) [8-mer AGCTACTG]” displayed a binding signal (PBM E-score (-0.5 to 0.5)) of 0.492.

Regarding “CAGTAGCC (double strand) [8-mer CAGTAGCC]”, the binding signal (PBM E-score (-0.5 to 0.5)) in data set [3] was 0.492.

Regarding “CTGGAAAA (double strand) [8-mer CTGGAAAA]”, the binding signal (PBM E-score (-0.5 to 0.5)) in data set [1] amounted to 0.475.

For the sequence “GAAGCCCC (double strand) [8-mer GAAGCCCC]”, in data set [2], the binding signal (PBM E-score (-0.5 to 0.5)) was determined as 0.492.

In data set [3], “CGCTACCG (double strand) [8-mer CGCTACCG]” displayed a binding signal (PBM E-score (-0.5 to 0.5)) of 0.488.

Consider “CCGGTAGC (double strand) [8-mer CCGGTAGC]”, for which the binding signal (PBM E-score (-0.5 to 0.5)) in data set [3] was 0.496.

As to “GGCTTCCC (double strand) [8-mer GGCTTCCC]”, in data set [2], the binding signal (PBM E-score (-0.5 to 0.5)) was 0.497.

Take “ATGAAGCC (double strand) [8-mer ATGAAGCC]”: in data set [2], the binding signal (PBM E-score (-0.5 to 0.5)) was determined as 0.489.

Turning to “AGCTACCG (double strand) [8-mer AGCTACCG]”, the binding signal (PBM E-score (-0.5 to 0.5)) in data set [3] is 0.492.

Sequence “AAGAAGCC (double strand) [8-mer AAGAAGCC]” showed a binding signal (PBM E-score (-0.5 to 0.5)) in data set [2] of 0.493.

“AGAAGCCC (double strand) [8-mer AGAAGCCC]”: the binding signal (PBM E-score (-0.5 to 0.5)) in data set [2] was found to be 0.491.

On to “CAGTAGCG (double strand) [8-mer CAGTAGCG]”, for which the binding signal (PBM E-score (-0.5 to 0.5)) in data set [3] was 0.488.

In turn, “ACAGTAGC (double strand) [8-mer ACAGTAGC]” came in with a binding signal (PBM E-score (-0.5 to 0.5)) in data set [3] of 0.499.

With “GCTACTGA (double strand) [8-mer GCTACTGA]”, the binding signal (PBM E-score (-0.5 to 0.5)) in data set [3] came out at 0.486.

Turning to “CCAGTAGC (double strand) [8-mer CCAGTAGC]”, the binding signal (PBM E-score (-0.5 to 0.5)) in data set [3] worked out at 0.492.

In the case of “GGGCTTCA (double strand) [8-mer GGGCTTCA]”, the binding signal (PBM E-score (-0.5 to 0.5)) in data set [2] is 0.493.

Consider “AACAGTAG (double strand) [8-mer AACAGTAG]”, for which the binding signal (PBM E-score (-0.5 to 0.5)) in data set [3] was determined as 0.492.

In data set [2], “AGGCTTCC (double strand) [8-mer AGGCTTCC]” had a binding signal (PBM E-score (-0.5 to 0.5)) of 0.491.

With “CGGTAGCA (double strand) [8-mer CGGTAGCA]”, the binding signal (PBM E-score (-0.5 to 0.5)) in data set [3] is 0.496.

In data set [2], “AGGGCTTC (double strand) [8-mer AGGGCTTC]” returned a binding signal (PBM E-score (-0.5 to 0.5)) of 0.497.

For the sequence “ACGGTAGC (double strand) [8-mer ACGGTAGC]”, in data set [3], the binding signal (PBM E-score (-0.5 to 0.5)) worked out at 0.498.

The record behind these values is PMC4434323.
